Source: the domain aggregation screens of Martell et al. (2025)

Test: soluble fraction after stress (log2 fold change); higher = more stays soluble; pooled small domains, quantitative proteomics
Details: stress: 50 degC
In short: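 Each library was heated to 50°C as a stress step. The libraries, made up of small protein domains, were pooled and analysed at high throughput by quantitative proteomics. The reported value is the base-two logarithm of the fold change in each protein's soluble amount after stress, taken as a measure of aggregation propensity. The higher the value, the more protein stays in solution.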

Sequence | soluble fraction (log2)
HMNVESMVGKQGKVVVEIDNISAKGMIKVDGMEWTARSVDGEIIPKDSLVAVVSVEGVKAMVRKAE | 0.163
HMTPDVHRGDTITVSLRAGAIRVRVPAKALEEGAAGGEIRVVNLTGGREYRVRVTGPGTAEAIL | 0.0275
HMLQESDPEALRGIVKSVLVDHAAVAEEYRAGKQSVLQFLVGQGMKASKGAGNPGLIRDLMLEEL | -0.00903
HMDETPESIFAKANELYPKYIKYFYTEQEYYSKVEEYINLYEFQKNSTYILGKDLEEFLEEYITNKQ | -0.517
HMSGAWEVGLLRQFTDWMGTQYNAYAGRNFDAITVAQVAEKNPELLTPFVESFFKERVEPALAAG | -0.849
HMDIDASEVRGIISQYINEPDGRVSYILETIQKKYRYLPEEAIRIVAQELEVPLTQLFGVATFYAAFSL | 0.0443
HMNIMAQDWISSPMGPISFKSNQHGLVKIGWGEVPRENTEQPNLEFTRKWLVDYFEGKASPLPYF | -0.329
HMVMIPDLVGETIEDAKDILEGLGFEVEVRSEFPESDWGRPFARVTSLSPSAGQEVAKGTLVIIRSF | -0.288
HMALSETIYRLRTEHGLSQGDLAAELDVSRQSISKWETGSSVPELDKLVAMSRLFGVSLDELVLGE | -0.63
HMANLNFDMSQIVASRYQEKAAELGVTAPSLARTDYNTQEQATYEFVAREIIADYYDDRVAPFNDLIPE | -0.223
HMVGKIVVPHLEGKPAEMARDILARDGFKSVHEEVLPSAEFGAGRVVRTEPHAGTNVAKTDPVTIFVSVGL | -0.00887
HMTKLLITNYERNVLINSYLLKNTPELDDIRRLLVHNKHISENDVSTEMARRIKKHKADWLRVT | -2.71
HMGDEVAVTEILVKVGDTVEADQSLLTVEGDKASMEVPAPFAGVVKAIQVQLGDKVVTGSPIMLFEV | -0.00831
HMKLSDDIIVDTIKEIIEENKNMIEQRKMGAMGPLMGKAMAKFKGKADGQTVSNVIKDEILNIIN | 0.154
HMSLIDLLQLNRKSKKLTLMNLVEMTGLSYGKVYRIFNGGIDKPTPDSLKLLAKALQLDYSYLFHKAGYL | -0.161
HMNMEDIADKIGRLYDNLPDDLKLMIKYRDIDDMTYDEIARKANLPIGTVRSRLHRARDILLREI | -0.647
HMRGHASVEIKRIVYKYKLTDQELAKITGMKASDFPIYHDHLQLILPKRYWARVLDALQNYEKEHES | -4.18
HMSEQYEQIQLALKTLTQDEQDIVRLVVVEGASLRTAGKNLGVSAMTIQRRLKRALARLRDLLAS | -0.948
HMGTVIGMGRITAGGVNFRETEGGGVIEKLERDTLVEVLTVPSVIDTTHWYQVRYNNRTGYVQAPFVQLLG | -0.0951
HMSGENAVLTEGTMVTVRRGGETITATARKETVKQFLSRMDIIPGSREMVGIELMENSVMLTISD | -0.227
HMRSNIYTEEKLWTVLQDFFQENRYLTISLMRMKFGLSRHMAQKWIDHFIAKGLLVKDGTPRSPIYFLND | -2.3
HMSSVVVARTWTDTTGDFKVEAELLGVEGGLVRLKKEDGTVLSVPIAKLSTADRTFLQENQP | 0.144
HMDESIPVITYKDSVYANPKAFADAHKLPYKSLHNALSKARKEGKVRFMYKQYNFHLDNNGYIVAVS | 0.166

Sequence | soluble fraction (log2)
HMDVLKMKVEDLNIGSRTVNSLTAAKIKTVAGLIKKSKESLLELDGMGNKGVEEIILALKKLGLEL | 0.0186
HMNEAMIMIDLKGKSRDEAVKELDELNLKYRFTGNGIVKDQKPKAGEEINSDTVVEVELSEIK | 0.114
HMEGNAFASTGDPEADILDITAVHPMRRDAVEELLARSGAEWSLVEGMLRDGKITMAPWEGEEFFIRS | 0.0467
HMEDIEEVIVEIDTVLRTHFDRGRTEVLFAEIETAGGRPFMTYLALLFMAHRGSVRLQQDDLFGDLWVKDP | -0.0374
HMQSANQLIKLSRKRKGLTQQELADQAGVSLRTVQRIEKGTEEISGFSLKQISQILEIPLEQLIM | -0.146
HMPAFWILAVLAGGRRHGYQIMREAALSSEGLVTLKPTTLYAALERLERDGAIQQDGEEIVDGRVRRYYRI | 0.259
HMNVGKRLKSLREKYKFSLEEVAKKIKSSAGAISRYENNERKINSESLIRLSNLYNVSPEYILYG | 0.0449
HMNNIGENIKKYRTKQGLSQEDFAKKSGVKYTTLTKIESGVIKKPSVLVMAKIAKALGVNIEELI | -0.0879
HMDDTRLELTLLGKIHNDEEINKQSHINVNIKNGVILLTGESPRREITERILTLARTFEHTRQIVNQIAT | 0.116
HMKVRVFIERSNDGYSAYMPDDNNLPFGLTGDGKTAQEAMQDFLLARDEMKEFFIEEGKEFPEVEFDFS | -1.35
HMKPEDIALLEEIRDLLKEKKSVIVNLEYVNKDVARRIVDFISGGVFALNGHIQKVSNSIFLVAPMN | 0.00619
HMQQLTQRELTLLRLLANGYNNRQIAEQLQLAESTVKNNLSALFQKIGVRDRTQAVLFAISQGLVP | -0.656
HMEDVSTLAVKQRIDDLVKQENPAKPLSDSDIVARLKTDGIYIARRTVAKYRMELNIPSSSARKRAQQFS | -0.833
HMSFRYLHVKRQLMSLIGTMNAHERLPSRTDLSETFQVARTTIERAISELIGEGWLYARDGSGTYVAER | -1.66
HMSSQADEEALFKLLAANPYSDEQLEEIRIAIGSGIAYKDIIRIADIGNTAERMKQLRLEFTKDTAN | -0.0428
HMGEVVRAPMPGNVLKMEVAQGQEVEEGDLLLVLEAMKMENDIVAPKGGIVIQLVVDKGMVVETDDPLVVI | 0.0323
HMQPYTYNPNFLSDYRAYSLGIPLEAYDKLVQFRASGSFVNSMSDFQKITGVSDSLLAVLHSKFRYPK | -0.884
HMGTFIATVEANSLDIYKSMSSNETIGKANKGEVFQILEDMGSGYARVSYNDVEGYLSIRDGDATIEE | -0.356
HMGSFGAMLKRNRKLAGLTQEQLAEKLDVSTVAVQNWESGKNQIRSEKLTKLSYLFNIPLETLIHEMLIS | -0.951
HMRRPTYPTVTTEAGMVVEDRSSGFVGDIVRWSFEGVTLRDRQQQLRHFTWKPGGFLINGTPVTLKRPE | -0.629
HMLAKNDSGLNNHTFNAIRDALLEALADGPAEAKKLTENISFPSDKIITVIRFLADHDDRFSLEDGILSLT | -0.515
HMNRTEYMAALRRALSVLPEEERASALRYYEEYFDDAGPENEEKVIADLGAPEKVAGQILADYRE | 0.00316
HMPTLTPFDVARIENAINPRLNLETAAKLKPWIAAGYTAQETADGTGFSPDTVKKYAAIFRK | 0.103

Sequence | soluble fraction (log2)
HMVRKIQAKLVLRLHAQGLSGRAIARSQGMSRRSVSDVLDAARAVGVGWDDVTGKTDGEVYALLFPGRG | -2.47
HMVSLNKTEFIAVKKASASELRDKINSLGLDVLKDATISADARTNQIIATGPKYALEQIKMLVVGLDVSS | 0.0771
HMQVEEKNKKIELYIEGKIKELESNLMYVPNENKKKLLMAFMNRNEDIEIIKTKIDTIFNKSVAAYKENM | 0.237
HMIQSEQIPFSKFLKEVDSGRVVQVEIQGNNINGVLSDGSKFKTYSPNYPELVGKLSDKGVSIVASPV | 0.106
HMKEILVGVEPLSKKQIIIKKGIKGRSDYIIFEKKNYGLPENLKPEEVSIEIALKIIDEKKKRKA | -1.23
HMDFDQELFDKIVEATMDEARAAMDTDDKNVREERWNKLIEHWHELFLEDYPEMDKYLEEITYKFQKNPAT | -0.302
HMSWGDVKLTMWGAEEDQTMLREMADAFIEQNADKGNVTIEIGVQSESSAKDTVLADPESAADVFA | 0.00693
HMVAGHLSEKKGYYYAVLNYKDYTGKRKSKWVSTGLPVKGNKRRAEKILADIKRDFVPEEPKR | -0.596
HMAGSGDLNAKYLASIPAPMKAKILKAVANHYGVSISEFEEEVTDKDAEALYEYIPTRSMAVQVLRDMKG | -0.373
HMQVTIGADLAEHAARLDVQISDVVKLIKSGVSEGEIKVGLTKLETRLAHPELALVENKLAYLKALIAES | -0.243
HMTATIEEVNELTQSARVNINVPYAAKDEAKAYGAKWDDVERTWYTTGENYAQNKDFFDGFNPTAS | 0.156
HMTRDGMTKEAFDSLLEDIMNILLDNGLKATTMGSIAKSLKMSKRTLYEIFSSKSQMVEEAIIASHTKMM | 0.15
HMSSADIPFSRFIDDVEAQRVEKVTIDGVNVTGRYRSDGAAFKTIIPSQYDGLVPILRQNKVDITVKDA | 0.123
HMRFSYLNIETRKDISSLINKSEITHSSYNNNEYLYKIKSKKTDDFKDLISLIDEKDLISYSIDS | -0.838
HMLPDPIYEAFMMASDLGIVVRNGPQYAYPDKETGEVLYKALGREKFLQLMKDNDGLLTSIETEIRSM | -1.18
HMTNVETLVRMRLRSIRTTLGYSLDEIAERSNLSASTVSRIETGKRALSIDVLVPLAAALQVSVDDLLRAE | -2.43
HMSSASETQYELALQAMRDGDNDAALRSLSTALASGFSDWQRIDEEPLLAALANDVRFQVLRSRWK | 0.0414
HMREIRIIAEEGHGRLDAFLAGREELGLSRSRIKGLIEEGQVTLNGAVPKAKQPVSPGDEIVVSVPD | 0.141
HMQPPVDGNEIMEIFGIKGSPVIGVIKSTIKNAILDGIIAPNDREAALELMFRIADENGLKPVVTQTQ | 0.101
HMDLLIFSPSLGQHVRDLKRVIDRLHQHGIPVRWQKAKLLREEIEYIGWTWKSGGLIDPTNV | -0.31
HMQKRDQKKRANMLDSLKVGTRIVTIGGIFGEIAKIKDDRIRIKVAEDVEIWIRRAAVGTVIT | -0.207
HMALTARDLGLTHRQADVLHLVLQGKPVKLIARDLGLAEGTVKSHVSAVLRALNVTTRTQAIVAAGRLGLM | -1.92
HMDLEGLSNKELVTLRGQIQDDLNKWATEVGIIDPKNRPDDYNRALQSLEDAKRQRSAIDAKL | 0.0869
